Results taken from article PMC6949598, “Structure-based mechanism of cysteine-switch latency and of catalysis by pappalysin-family metallopeptidases” (IUCrJ, 2020).

Target: T1, mature wild-type mirolysin (Tannerella forsythia, UniProt A0A0F7IPS1 55-331)
T1 construct: the model holds Pro58-Pro327; Holds one catalytic zinc and two calcium ions; disulfides Cys243-Cys271 and Cys262-Cys291; The promirolysin constructs were made in E. coli BL21 (DE3) as fusions with N-terminal GST and a PreScission site; also called mature mirolysin; CD; source: recombinant, prepared as previously described (Koneru et al., 2017)
Test: crystal structure; mature mirolysin incubated at 1:2 molar ratio with BFO_2662, which was cleaved; sitting drop, 4 °C, protein ~12 mg/ml in 5 mM Tris HCl, 50 mM NaCl, 5 mM CaCl2, pH 8.0; reservoir 40% ethanol, 5% PEG 1000, 0.1 M phosphate-citrate pH 4.2; 1.5 Å; one complex per asymmetric unit
Settings: both partners purified

B1: tetradecapeptide K110-K123 of small lipoprotein BFO_2662 (peptide)
peptide: KRDPVYFIKLSTIK
notes: segment K110-K123 of small lipoprotein BFO_2662, Tannerella forsythia; numbered Lys1-Lys14 in the structure; only the first seven residues were assigned unambiguously from the map; A citrate (CIT-1) in sub-site S1 belongs to molecule B of the model but is no part of the peptide; also called Lys1-Lys14; product; source: cleavage product of BFO_2662, cut by mirolysin during crystallization …
binding result: binds
